One may read the kon as a measure of how fast the partners come together. For orientation: Kd means a measure of binding affinity in units of concentration. By koff is commonly meant a measure of how fast the partners let go of each other. Broadly, the IC50 is the concentration at which inhibition is half-maximal.

Consider two molecules from patent publication US20220267440A1 (ABSOS, published 2022).

Experiment [1] deals with T1, recombinant human CD47 (Novoprotein cat no. C321, lot no. 0329689) (human, UniProt Q08722 19-139).
T1 construct: Bought reagent
As to the kind of experiment: SPR summary table, 25 C.
Experimental: (§1) Binding kinetics were measured at 25° C. using a BioRad ProteOn XPR36 optical biosensor equipped with GLM sensor chips and equilibrated with running buffer (HBS, 0.005% TWEEN-20, 0.1 mg/mL BSA, pH 7.4).
(§2) CD47 was tested in a three-fold dilution series starting at 100 nM.

Experiment [2] has as its target T1, recombinant human CD47 (Novoprotein cat …). As to the kind of experiment: SPR summary table, 25 C; kd fixed.
Experimental: (§3) Affinity was determined for five selected AlivaMab Mouse monoclonal hybridoma supernatants (Biosensor Tools, Salt Lake City, Utah). Binding kinetics were measured at 25° C. using a BioRad ProteOn XPR36 optical biosensor equipped with GLM sensor chips and equilibrated with running buffer (HBS, 0.005% TWEEN-20, 0.1 mg/mL BSA, pH 7.4).
as §2
For experiment [3] the target is unchanged. The experiment is described as follows: SPR, antibodies binned by kd at 25 C (value is the column's head). (In general: In SPR one partner is held on a chip, and binding of the other changes the refractive index at the surface.)
Experimental: as §1, §2
For experiment [4] the target is unchanged. The experiment is described as follows: SPR (ProteOn XPR36), mAb captured on anti-mouse Fc, CD47 as analyte, 25 C, 1:1 model.
Experimental: as §1, §2
The target in experiment [5] is T2, recombinant CD47-Fc (Sino Biologics) (human, UniProt Q08722 19-139).
T2 construct: Bought reagent; also called human CD47-Fc; not shown: Fc
The experiment is described as follows: competition ELISA: HIS-tagged SIRP α binding to plate-bound CD47-Fc, antibody titrated.

Experiment [6] has as its target T1, recombinant human CD47 (Novoprotein cat …). The experiment is described as follows: SPR summary table, 25 C; dissociation rate constant fixed at 1e-5 s^-1; summary table; kd fixed at 1e-5.
Experimental: as §3, §2
Experiment [7] has the same target. The experiment is described as follows: SPR (ProteOn XPR36), mAb captured on anti-mouse Fc, CD47 as analyte, 25 C; kd fixed, KD a rough estimate.
Experimental: as §3, §2
Experiment [8] has the same target. The experiment is described as follows: SPR (ProteOn XPR36), mAb captured on anti-mouse Fc, CD47 as analyte, 25 C; no decay detected, kd fixed at 1e-5 in the fit; no decay seen; kd fixed at 1e-5 in the fit.
Experimental: as §3, §2

B1: anti-CD47 AlivaMab antibody 139 (antibody, IgG1, V domains shown)
VH: QVQLQESGPGLVKPSETLSLTCTVSGGSISNYYWSWIRQPPGKGLEWIGYIYYSGSTNYNPSLKSRVTISVDTSKNQFSLKLSSVTAADTAVYYCARSRYFDLWGRGTLVTVSS
VL: DIQMTQSPSAMSASVGDRVTITCRASQGISIYLAWFQQKPGKVPKRLIYAASSLQSGVPSRFSGSGSGTEFTLTISSLQPEDFATYYCLQHTSYPYTFGQGTKLEIK
notes: Chimeric AlivaMab Mouse mAb from hybridoma: human V, CH1 and upper hinge, mouse middle hinge, CH2 and CH3, human kappa light chain
Regarding B1, the kon in experiment [1] and in experiment [4] was 1.18e+06 M⁻¹ s⁻¹ in each case. Also, the results for the Kd in experiment [2] and in experiment [7] were approximately 0.009 nM and not above 0.0085 nM, respectively. Besides, the koff in experiment [3], in experiment [6] and in experiment [8] was not above 1e-05 s⁻¹ in each case. The IC50 in experiment [5] is 2.2 nM.

B2: anti-CD47 AlivaMab antibody 151 (antibody, IgG1, V domains shown)
VH: QVQLQESGPGLVKPSETLSLTCTVSGGSISSYYWSWIRQPPGKGLEWIGYIYYSGSTNYNPSLKSRVTISVDTSKNQFSLKLSSVTAADTAVYYCARKRKYFDYWGQGTLVTVSS
VL: DIQMTQSPSSLSASVGDRVTITCRASQGISNYLAWYQQKPGKVPKLLIYAASTLQSGVPSRFSGSGSGTDFTLTISSLQPEDVATYYCQKCNSAPFTFGPGTKVDIK
notes: Chimeric AlivaMab Mouse mAb from hybridoma: human V, CH1 and upper hinge, mouse middle hinge, CH2 and CH3, human kappa light chain; also called clone 151; mAb 151
Consider B2, for which, in experiment [1], the Kd is 1 nM, the koff came to 0.0089 s⁻¹ and the kon amounted to 8.7e+06 M⁻¹ s⁻¹. Besides, the koff in experiment [3] is approximately 0.01 s⁻¹. In experiment [4], the Kd was 1 nM, the off-rate (koff) stood at 0.0089 s⁻¹ and the kon was found to be 8.7e+06 M⁻¹ s⁻¹. For the same molecule, the IC50 in experiment [5] was determined as 2 nM.
